Key:
GST-IFT27 [1] = biological target: T1, GST-IFT27 (Chlamydomonas reinhardtii …, UniProt A8HN58); test: pull-down (GST and amylose resin)
T1 chain: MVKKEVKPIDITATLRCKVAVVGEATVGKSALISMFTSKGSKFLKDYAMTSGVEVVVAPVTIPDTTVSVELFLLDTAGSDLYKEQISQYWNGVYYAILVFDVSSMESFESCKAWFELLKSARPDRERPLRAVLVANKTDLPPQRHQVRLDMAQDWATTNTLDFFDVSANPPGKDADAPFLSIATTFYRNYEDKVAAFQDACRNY

GST-IFT27 [2] = biological target: T2, GST-IFT27 (Chlamydomonas reinhardtii, UniProt A8HN58 1-204); test: pull-down; GST-IFT27 (~2 ug) on Glutathione Sepharose 4B beads, incubated 1 hour with MBP-IFT25 (~2 ug), MBP-IFT25 plus MBP, or MBP (2 ug); 1xHMDEK, 4 C; supernatant and pellet on SDS-PAGE, Coomassie and immunoblot; settings: both partners purified
T2 construct: IFT27, Rab-like small GTPase component of IFT complex B, Chlamydomonas reinhardtii; also called GST-tagged IFT27; source: E. coli BL21 (DE3) pLysE, pGEX-2T-IFT27, purified (Glutathione Sepharose 4B, eluted with reduced glutathione)
T2 sequence (looked up): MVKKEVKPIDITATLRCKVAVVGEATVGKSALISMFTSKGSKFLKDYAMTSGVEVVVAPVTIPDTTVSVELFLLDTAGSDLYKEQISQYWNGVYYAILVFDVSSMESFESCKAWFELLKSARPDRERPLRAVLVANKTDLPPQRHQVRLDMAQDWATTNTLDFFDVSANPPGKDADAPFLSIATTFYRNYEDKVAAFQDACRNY

B1: MBP-IFT25 (natural protein, Chlamydomonas reinhardtii, UniProt B8LIX8 1-189, looked up)
chain: MKDYAREENGGLVVMASCSDERFPPENMLDGKDNTFWVTTGMFPQEFVLRLESCIRVSKITTLSLNVRKLAVEKCDQDKPDQFEKVFEVELANRGDRLQTEVHQVNIRAKYLKFILLQGHGEFATVNRVSVVGGDDDGGGYDEPGGGYGSMQRQPSMGYGGGGGSAATGFAADPGNAAAGGGGGFEDEF
notes: IFT25 (Flagellar Associated Protein FAP232) of Chlamydomonas reinhardtii; cDNA of 570 nucleotides, predicted about 20 kD; the 3' end of the FAP232 gene model was predicted incorrectly, the corrected cDNA is GenBank EF593953; Details of vector construction are 'available upon request'; also called MBP-tagged IFT25; FAP232; source: E. coli BL21 (DE3) pLysE, pMAL-c2-IFT25, purified (amylose resin, …)
binding result (GST-IFT27 [1]): binds | binding result (GST-IFT27 [2]): binds
